Measurements published in patent publication US20210238298A1 (ALLIGATOR BIOSCIENCE, published 2021).
Residue numbers refer to the chain shown, from its start.

T1: murine OX40 (murine, UniProt P47741 20-211, limits assumed)
T1 sequence (looked up): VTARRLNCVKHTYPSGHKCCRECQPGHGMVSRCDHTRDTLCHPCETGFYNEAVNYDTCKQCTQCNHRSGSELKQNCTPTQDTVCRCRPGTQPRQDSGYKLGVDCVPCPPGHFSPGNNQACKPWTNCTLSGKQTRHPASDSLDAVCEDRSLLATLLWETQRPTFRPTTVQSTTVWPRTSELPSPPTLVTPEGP

T2: OX40 chimera 1549: human OX40 with mouse domains 1A and 4B and non-annotated extracellular region (aa 30-65 … (human; mouse, UniProt P47741 26-61; P47741 125-211)
T2 construct: domain: 1A;domain: 4B and non-annotated extracellular region; Limits derived as for 1544
T2 sequence: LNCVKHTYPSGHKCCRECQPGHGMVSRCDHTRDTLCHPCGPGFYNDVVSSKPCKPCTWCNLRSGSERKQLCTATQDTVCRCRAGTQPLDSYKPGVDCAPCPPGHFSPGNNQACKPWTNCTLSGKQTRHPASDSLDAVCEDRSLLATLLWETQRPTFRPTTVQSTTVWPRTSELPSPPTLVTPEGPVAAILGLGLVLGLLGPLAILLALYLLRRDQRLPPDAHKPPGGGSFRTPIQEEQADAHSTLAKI

T3: OX40 chimera 1548: human OX40 with mouse module 3 and domains 4A and 4B (aa 108-167), on FreeStyle 293-F cells (human; mouse, UniProt P47741 104-165)
T3 construct: domain: module 3, 4A and 4B; Limits derived as for 1544
T3 sequence: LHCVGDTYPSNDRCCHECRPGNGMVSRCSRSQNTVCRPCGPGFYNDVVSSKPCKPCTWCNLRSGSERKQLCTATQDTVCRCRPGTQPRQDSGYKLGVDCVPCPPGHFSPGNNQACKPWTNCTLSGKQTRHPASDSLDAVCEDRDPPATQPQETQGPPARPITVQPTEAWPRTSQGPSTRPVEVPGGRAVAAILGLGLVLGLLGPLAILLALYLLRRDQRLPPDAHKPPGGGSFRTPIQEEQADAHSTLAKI

B1: anti-OX40 antibody 1166/1167 (antibody, V domains shown)
VH: EVQLLESGGGLVQPGGSLRLSCAASGFTFGGYYMSWVRQAPGKGLEWVSAISGSGGSTYYADSVKGRFTISRDNSKNTLYLQMNSLRAEDTAVYYCARYDYASMDYWGQGTLVTVSS
VL: DIQMTQSPSSLSASVGDRVTITCRASQSISSYLNWYQQKPGKAPKLLIYAASSLQSGVPSRFSGSGSGTDFTLTISSLQPEDFATYYCQQYYWYGLSTFGQGTKLEIK
notes: Tested as IgG
B2: anti-OX40 antibody 1170/1171 (antibody, V domains shown)
VH: B1 VH with A50Y, S52P, A102Y, S103W
VL: B1 VL with Y91G, Y92H, W93G, Y94S, G95Y, L96P, S97H
notes: Tested as IgG
B3: anti-OX40 antibody 1514/1515 (antibody, V domains shown)
VH: EVQLLESGGGLVQPGGSLRLSCAASGFTFGYYYMSWVRQAPGKGLEWVSGISSYGSYTYYADSVKGRFTISRDNSKNTLYLQMNSLRAEDTAVYYCARSGYSNWANSFDYWGQGTLVTVSS
VL: DIQMTQSPSSLSASVGDRVTITCRASQSISSYLNWYQQKPGKAPKLLIYAASSLQSGVPSRFSGSGSGTDFTLTISSLQPEDFATYYCQQGDYTLFTFGQGTKLEIK
notes: Tested as IgG
B4: anti-OX40 antibody 1490/1135 (antibody, V domains shown)
VH: EVQLLESGGGLVQPGGSLRLSCAASGFTFSSYAMSWVRQAPGKGLEWVSGISYYGGYTYYADSVKGRFTISRDNSKNTLYLQMNSLRAEDTAVYYCARYYPHHYIDYWGQGTLVTVSS
VL: not shown
notes: Tested as IgG
B5: human wild-type CD86 (monomeric soluble extracellular domain) (ligand)
chain: APLKIQAYFNETADLPCQFANSQNQSLSELVVFWQDQENLVLNEVYLGKEKFDSVHSKYMGRTSFDSDSWTLRLHNLQIKDKGLYQCIIHHKKPTGMIRIHQMNSELSVLA
notes: also called wild type protein
B6: CD86 mutant 910 (ligand)
chain: LKIQAYFNETADLPCQFANSQNQSLSELVVFWQDQENLVLNEVYLGKEKFDSVDSKYMGRTSFDSDSWTLRLHNLQIKDKGIYQCIIHHKKPTGMVKIHEMNSELSVLA
notes: Variant of the CD86 extracellular domain
B7: CD86 mutant 906 (ligand)
chain: B6 chain with F7I, Q23L, K49R, I82F, M95L
notes: as for B6
B8: CD86 mutant 907 (ligand)
chain: B6 chain with D54H, I82L, V96I
notes: as for B6
B9: CD86 mutant 901 (ligand)
chain: B6 chain with Q23L, S24T, D54H, I86V, V96I, A109T
notes: as for B6
B10: CD86 mutant 938 (ligand)
chain: B6 chain with V39I, D54H, E100Q
notes: as for B6
B11: CD86 mutant 904 (ligand)
chain: B6 chain with V29I, K49R, S52A, T93S, E100Q, N102D
notes: as for B6
B12: CD86 mutant 915 (ligand)
chain: B6 chain with V39I, I82F, T93S, M95L, V96I, E100Q, N102D
notes: as for B6
B13: CD86 mutant 908 (ligand)
chain: B6 chain with D54H
notes: as for B6

Molecular target: extracellular part of OX40 from Macaca mulatta fused to the transmembrane and intracellular part of hCD40, on … (Macaca mulatta; human, UniProt A0A5F7ZKD5 21-541; P25942 194-277)
Sequence (P25942 other isoform, or with tags, fused parts or gaps): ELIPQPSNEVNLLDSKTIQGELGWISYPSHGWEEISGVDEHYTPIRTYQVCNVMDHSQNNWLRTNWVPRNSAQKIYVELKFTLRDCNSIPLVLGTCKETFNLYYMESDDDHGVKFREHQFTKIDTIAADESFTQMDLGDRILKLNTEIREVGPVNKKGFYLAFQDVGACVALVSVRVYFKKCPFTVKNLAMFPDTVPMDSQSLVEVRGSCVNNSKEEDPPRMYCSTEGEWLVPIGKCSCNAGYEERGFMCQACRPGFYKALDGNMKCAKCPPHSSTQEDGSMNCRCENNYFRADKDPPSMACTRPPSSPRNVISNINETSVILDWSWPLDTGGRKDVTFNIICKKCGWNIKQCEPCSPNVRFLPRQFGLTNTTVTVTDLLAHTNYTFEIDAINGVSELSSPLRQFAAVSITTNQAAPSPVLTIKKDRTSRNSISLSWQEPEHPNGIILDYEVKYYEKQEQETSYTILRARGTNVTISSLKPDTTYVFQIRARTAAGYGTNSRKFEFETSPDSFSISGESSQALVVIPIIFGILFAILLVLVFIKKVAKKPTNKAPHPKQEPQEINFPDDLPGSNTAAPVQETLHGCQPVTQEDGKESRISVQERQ
Assay: flow cytometry, macOX40-HEK cells; 95% confidence interval
Protocol: For the assay, the transfected cells were incubated with the test antibodies and controls for 30 min at 4° C. and then detected with a-huIgG-PE (Jackson Immunoresearch) 30 min 4° C. Cells were analyzed by flow cytometry with FACS Verse (BD Biosciences).

Row | Binder | EC50
1 | B1 | 0.16 to 0.242 µg/mL

Molecular target: T4, CD40 (Ancell) (UniProt P25942 21-193)
T4 construct: also called CD40-Fc (Ancell #504-820); not shown: Fc part, not described
T4 sequence (P25942 21-193 limits assumed): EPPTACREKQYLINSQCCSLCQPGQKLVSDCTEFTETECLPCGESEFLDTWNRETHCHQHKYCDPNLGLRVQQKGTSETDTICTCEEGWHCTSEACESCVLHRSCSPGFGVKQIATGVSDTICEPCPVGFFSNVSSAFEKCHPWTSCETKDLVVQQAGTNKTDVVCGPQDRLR
Assay: ELISA

Row | Binder | binding result
2 | B1 | no binding
3 | B2 | no binding
4 | B3 | no binding
5 | B4 | no binding

Molecular target: T1, murine OX40
Assay: ELISA

Row | Binder | binding result
6 | B1 | no binding
7 | B2 | no binding
8 | B3 | no binding
9 | B4 | no binding

Molecular target: T5, recombinant human CD137-Fc (R&D #838-4B) (human, UniProt Q07011 24-186)
T5 construct: Bought; also called Human CD137 (R&D systems); CD137 (R&D Systems); not shown: Fc part, not described
T5 sequence (Q07011 24-186 limits assumed): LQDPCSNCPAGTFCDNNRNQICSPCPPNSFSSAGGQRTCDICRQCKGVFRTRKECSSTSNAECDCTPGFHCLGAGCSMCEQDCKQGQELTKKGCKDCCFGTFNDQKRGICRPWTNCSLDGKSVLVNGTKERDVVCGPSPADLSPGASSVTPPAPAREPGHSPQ
Assay: ELISA

Row | Binder | binding result
10 | B1 | no binding
11 | B2 | no binding
12 | B3 | no binding
13 | B4 | no binding

Molecular target: T2, OX40 chimera 1549: human OX40 with …
Assay: flow cytometry, 293-F transfectants
Protocol: (§1) The mouse/human chimeras were transiently transfected into FreeStyle 293-F cells (Invitrogen), incubated 48 hours in FreeStyle 293 expression medium (Invitrogen) 37 C, 8% CO₂, 135 rpm. The transfected cells were incubated with human OX40 antibodies, human OX40L (hOX40L, RnD Systems), mouse OX40L (mOX40L, RnD Systems) and controls for 30 min 4° C. and then detected with a-huIgG-PE (Jackson Immunoresearch) 30 min 4° C. Cells were analyzed with FACS Verse (BD Biosciences). Binding to the different chimeric constructs were calculated as relative (mean fluorescence intensity) MFI compared to the binding of the isotype control.

Row | Binder | relative MFI vs isotype control
14 | B1 | 11.3
15 | B2 | 12.1
16 | B3 | 10.6

Molecular target: T3, OX40 chimera 1548: human OX40 with …
Assay: flow cytometry, 293-F transfectants
Protocol: as §1

Row | Binder | relative MFI vs isotype control
17 | B1 | 15.8
18 | B2 | 20.3
19 | B3 | 17.2
20 | B4 | 1.1

Molecular target: T6, CTLA4-Fc (Fitzgerald, #30R-CD152) (human, UniProt P16410 38-152)
T6 construct: Bought; also called human CTLA-4 (Fitzgerald); biotinylated-CTLA4; not shown: Fc part of the bought fusion, not described
T6 sequence (P16410 38-152 limits assumed): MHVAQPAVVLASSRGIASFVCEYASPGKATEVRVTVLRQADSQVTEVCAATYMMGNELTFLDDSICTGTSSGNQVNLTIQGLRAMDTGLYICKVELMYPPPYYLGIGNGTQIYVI
Assay: SPR on immobilised CTLA4-Fc and CD28-Fc
Protocol: (§2) Either CTLA4-Fc (Fitzgerald, #30R-CD152) or CD28-Fc (R&D Systems, 342-CD) was immobilized to the Biacore™ sensor chip, CM5, using conventional amine coupling. The CD86 mutant molecules and controls (serially diluted ½ 100-1.5 nM) were analyzed for binding in HBS-P (GE, BR-1003-68) at a flow rate of […]. The association was followed for 3 minutes and the dissociation for 10 minutes. Regeneration was performed twice using 5 mM NaOH for 30 seconds. The kinetic parameters and the affinity constants were calculated using BIAevaluation 4.1 software (Table 1.3).

Row | Binder | Kd binding ratio ([Kd for CD28]/[Kd for CTLA-4])
21 | B5 | 1.6
22 | B6 | 5.1
23 | B7 | 0.8
24 | B8 | 5.6
25 | B9 | 2.7
26 | B10 | 5.5
27 | B11 | 6.8
28 | B12 | 1.9
29 | B13 | 4.7

Molecular target: T6, CTLA4-Fc (Fitzgerald, #30R-CD152)
Assay: ELISA on coated CTLA4-Fc and CD28-Fc
Protocol: 96-well flat bottom high binding plates (Greiner, #655074) were coated with either CTLA4-Fc (Fitzgerald, #30R-CD152) or CD28-Fc (R&D systems, 342-CD) by incubating overnight at 4° C. […] The plates were washed again and sample or controls (serially diluted ⅕ from 200-0.001 μg/ml) were added to the wells. The samples were incubated for 1 h at room temperature and then washed. Detection antibody, goat-anti-human IgG Fcγ-HRP (Jackson, #109-035-098) was added and the plates were subsequently developed using SuperSignal Pico Chemiluminescent substrate (Thermo Scientific, #37069) and detected with an Envision reader (Perkin Elmer). EC50 values were calculated for both CTLA4 and CD28. The binding ratio (EC50 binding ratio=[EC50 for CD28]÷[EC50 for CTLA-4]) was calculated for each polypeptide and is shown in Table 1.1.

Row | Binder | EC50 binding ratio ([EC50 for CD28]/[EC50 for CTLA-4])
30 | B5 | 3.4
31 | B6 | 7.7
32 | B7 | 16.2
33 | B8 | 30.5
34 | B9 | 17.2
35 | B10 | 2
36 | B11 | 12.2
37 | B12 | 9.9
38 | B13 | 6.2

Molecular target: T6, CTLA4-Fc (Fitzgerald, #30R-CD152)
Assay: SPR (Biacore), immobilised CTLA4-Fc
Protocol: as §2

Row | Binder | Kd | koff | kon
39 | B5 | 50 nM | 0.023 s⁻¹ | 460000 M⁻¹ s⁻¹

Molecular target: T7, soluble murine CTLA-4 (R&D systems) (murine, UniProt P09793 36-162)
T7 construct: Bought
Assay: not described
Protocol: In brief, 96-well flat bottom plate high binding plates (Greiner #655074) were coated with human CTLA-4 (Fitzgerald) incubating overnight at 4° C.
The sample (exemplary CD86 mutant) was pre-incubated at room temperature for 1 hour with soluble biotinylated human CTLA4 (Fitzgerald #30R-CD152) or soluble murine CTLA-4 (R&D systems) at different concentrations (serial dilutions ¼ from 30000 to 0.3 ng/ml).
The mixture was then added to the blocked wells in the ELISA plate. Detection was performed with Streptavidin-HRP (Pierce, #21126) and the plates were subsequently developed using SuperSignal Pico Chemiluminescent substrate (Thermo Scientific, #37069) and detected with Envision reader (Perkin Elmer).

Row | Binder | binding result
40 | B6 | binds
41 | B7 | binds
42 | B8 | binds
43 | B9 | binds
44 | B10 | binds
45 | B11 | binds
46 | B12 | binds
47 | B13 | binds
